A short description of the series: soluble on expression in E. coli; label from the status in PepcDB or PDB records.
As to “NETEVAKTSQDTTTASSSSEQNQSSNKTQTSAEVQTNAAAYWDGDYYVKDDGSKAQSEWIFDNYYKAWFYINSDGRYSQNEWHGNYYLKSGGYMAQNEWIYDSNYKSWFYLKSDGAYAHQEWQLIGNKWYYFKKWGYMAKSQWQGSYFLNGQGAMIQNEWLYDPAYSAYFYLKSDGTYANQEWQKVGGKWYYFKKWGYMARNEWQGNYYLTGSGAMATDEVIMDGARYIFAASGELKEKKDLNVGWVHRDGKRYFFNNREEQVGTEHAKKIIDISEHNGRINDWKKVIDENEVDGVIVRLGYSGKEDKELAHNIKELNRLGIPYGVYLYTYAENETDAENDAKQTIELIKKYNMNLSYPIYYDVQNWEYVNKSKRAPSDTDTWVKIINKYMDTMKQAGYQNVYVYSYRSLLQTRLKHPDILKHVNWVAAYTNALEWENPYYSGEKGWQYTSSEYMKGIQGRVDVSVWY”, the “soluble on expression in E. coli” value is “soluble”.

As to “MRGSHHHHHHGSDLGKKLLEAARAGQDDEVRILIANGADVNAVDNTGLTPLHLAAVSGHLEIVEVLLKHGADVDAADVYGFTPLHLAAMTGHLEIVEVLLKYGADVNAFDMTGSTPLHLAADEGHLEIVEVLLKYGADVNAQDKFGKTAFDISIDNGNEDLAKSCRN”, the “soluble on expression in E. coli” value is given as “soluble”.

With “MSLTTLHFSGFPRVGAFRELKFAQEKYWRKEISEQELLAVAKDLREKNWKHQVAANADFVAVGDFTFYDHILDLQVATGAIPARFGFDSQNLSLEQFFQLARGNKDQFAIEMTKWFDTNYHYLVPEFHADTEFKANAKHYVQQLQEAQALGLKAKPTVVGPLTFLWVGKEKGAVEFDRLSLLPKLLPVYVEILTALVEAGAEWIQIDEPALAVDLPKEWVEAYKDVYATLSKVSAKILLSTYFGSVAEHAALLKALPVDGLHIDLVRAPEQLDAFADYDKVLSAGVIDGRNIWRANLNKVLETVEPLQAKLGDRLWISSSCSLLHTPFDLSVEEKLKANKPDLYSWLAFTLQKTQELRVLKAALNEGRDSVAEELAASQAAADSRANSSEIHRADVAKRLADLPANADQRKSPFADRIKAQQAWLNLPLLPTTNIGSFPQTTEIRQARSAFKKGELSAADYEAAMKKEIALVVEEQEKLDLDVLVHGEAERNDMVEYFGELLSGFAFTQYGWVQSYGSRCVKPPIIFGDVSRPEAMTVAWSTYAQSLTKRPMKGMLTGPVTILQWSFVRNDIPRSTVCKQIALALNDEVLDLEKAGIKVIQIDEPAIREGLPLKRADWDAYLNWAGESFRLSSAGCEDSTQIHTHMCYSEFNDILPAIAAMDADVITIETSRSDMELLTAFGEFQYPNDIGPGVYDIHSPRVPTEAEVEHLLRKAIEVVPVERLWVNPDCGLKTRGWKETLEQLQVMMNVTRKLRAELAKEGHHHHHH”, the “soluble on expression in E. coli” value is recorded as “not soluble”.

As for “MGSDKIHHHHHHMAVRPYWKGYLKLSLVTCPVQMMPATSESEKVRFHTLNRETQNRVVSHYVDSVTGKEVKDEDEVKGYQRGENEYIILEDEELENVALDSTKTIDISTFTPRDSVEWIWLDTPYYLSPNDPVGQEAFSVIRDAMEAQNMVGISRLVISRRERAVMLEPRGKGIVLWTLRYGDEVRDEDTYFAGIDDEETADREMMPLVQQLIKKQTKHWDAKMVIDPVQERLLDIIAAKKKALKKSARAKPSAPAKSTPSNVINIMDALKKSVAAENRSSK”, the “soluble on expression in E. coli” value is on record as “not soluble”.

As for “MQVMFYSPSGQKLFGENGSPAFLLKGGITDLKGAIEARTTVIPEVPGQVFDGVTIKPFTFGVTMVVYPTKEMPMEKAMRKTRQIFSAFDYSTCRIDGTGIPVGLKVRLDSIISAPSQDTAKEIAEEITITLAADEGIFWADRKEASGKIDIVNYGDCDLWPEYRWQKTTTITLPSGAKINLPETPTPRVLRTTRHQVSITDLDGKPDRELLKKLGTVWPEGVPRKETKTYEITQNGYIMWRIGYLDPWGL”, the “soluble on expression in E. coli” value was “not soluble”.

As to “MCTARTAEEIFVETIAVKTRILNDRVLLEAARAIGDRLIAGYRAGARVFMCGNGGSAADAQHFAAELTGHLIFDRPPLGAEALHANSSHLTAVANDYDYDTVFARALEGSARPGDTLFAISTSGNSMSVLRAAKTARELGVTVVAMTGESGGQLAEFADFLINVPSRDTGRIQESHIVFIHAISEHVEHALFAPRQ”, the “soluble on expression in E. coli” value is “soluble”.

On to “AIASAADDVNKKRKTAKEVEQEECEIYQNVVFNSIVDSNSKHELVDPSLQKLGAKSRGKVTFLLEQASLELVKIDRKWEILNGDEHQQYMKRKNLNPADYRPDIVHQCVLSLLDSPLNKAGYLDLYIHTTNNVLIKVNPQTRIPRTLKRFCGLTVQLLQDLKIFGHGLNKPLLQIIQNPITNHLPDMCWKTVCSYNCENLMSPHKHAQEVLKKDMNILYVIGAMAHGKIVEEWADEELKISSFPLSASAVCHRICSAYEILYEVL”, for which the “soluble on expression in E. coli” value is “soluble”.

In the case of “MFNRIMVPVDGSKGAVKALEKGVGLQQLTGAELYILCVFKHHSLLEASLSMARPEQLDIPDDALKDYATEIAVQAKTRATELGVPADKVRAFVKGGRPSRTIVRFARKRECDLVVIGAQGTNGDKSLLLGSVAQRVAGSAHCPVLVV”, the “soluble on expression in E. coli” value was “soluble”.

As to “MKTRHYSLLIFLAGSAFFPEISAQLANCQNLGTPINSTDCLCPGFVDGRLCENIKCQRWAVPDKNRCACAPGWYDRYCGLRGCRPPNEEQMDLEKRSFIIVFNTKTTMKMQLDSLKNNFKEMISKVSKNSKGVVNNWIENYIVYGFVESQSHTKIQKLFTENPDDVISFFNNMTLFDGDDTQPVLTAIQNAQQTYPKMQAHALVLVFTDSPASDATAWSHRFTDKNAEQSVLQISLIWRSKYSFFLSLPARTNFLSNGVDVYRRLSLTNHGDTFFIKDSNDLSNALLNVIGVQYFPENVQIGYGKTTDEQLQTYVDNDGDLVYILLTIRSSLQTTVPSISEATIVAEGDSYRLYSPASNIGDTVTIHCQNGTTYNYRMFIQSKNTLLFNYNDDMHIDVGNGMAVIGAKSIFLGTKNSANRDHNAHDLSGNANELTTNVSKNNTDTCSKKNLDSINDPRLQEPRQFIFILEQHSGNEQVYKTLAREINDILELVNSSTTSEYKKEFTLIAHDSAESHVLFSSYNPKIFAEKFSKLVNSLELTDNLDNTMGLLSIIHAQKMNILPTALVYYFTNQAVKNAQNLTRNWDLVKRDIEINFLTIADGVTTEIFALPKQLELVQKMTNGRLIPLGKTENSIFPIFKDMMTVTTLTTDNEQYNCHDTALEIDGYFEDGASVSISNYVTYKNPNFMSIRIDSKLFASGKWKLSALSTTGGCQITVRQKTSVGLVLGFTAATNDDNASTQIISQRSSSDSQPIFTTLKTTNHIVPTDLEIQIVNRQRYDQPVSYVKLGNAQRDTNSCSYDFISDSVVVPKSTLTMWIVSATDNAGKLILHRIFYYYLPRILSEFAVVLQGFMEIFVKLCSCSPPTLLQCLQYRPLQSQHK”, the “soluble on expression in E. coli” value was “not soluble”.

Take “MSFVECPYHSPAERLVAEADEGGPSAITEILKELDECYERFSRETDGAQKRRMLHCVQRALIRSQELGDEKIQIVSQMVELVENRTRQVDSHVELFEAQQELGDTAGNSGKLEHHHHHH”: the “soluble on expression in E. coli” value was “not soluble”.

Regarding “MGSSHHHHHHSSGLVPRGSHMAEQVLPQALYLSNMRKAVKIRERTPEDIFKPTNGIIHHFKTMHRYTLEMFRTCQFCPQFREIIHKALIDRNIQATLESQKKLNWCREVRKLVALKTNGDGNCLMHATSQYMWGVQDTDLVLRKALFSTLKETDTRNFKFRWQLESLKSQEFVETGLCYDTRNWNDEWDNLIKMASTDTPMARSGLQYNSLEEIHIFVLCNILRRPIIVISDKMLRSLESGSNFAPLKVGGIYLPLHWPAQECYRYPIVLGYDSHHFVPLVTLKDSGPEIRAVPLVNRDRGRFEDLKVHFLTDPENEMKEKLLKEYLMVIEIPVQGWDHGTTHLINAAKLDEANLPKEINLVDDYFELVQHEYKKWQENSEQGRREGHAQ”, the “soluble on expression in E. coli” value is “soluble”.

As to “MGSDKIHHHHHHLYNNSANTQFTGKSIHFLPSCHSTNTEASLLIRAQKAVNGLIVITNEQTAGRGQQGNSWLSKADSNLTFSVIFFPEKLHLKDSFYLNIVSSLSIAKTVDELVPENIVKVKWPNDILLNNKKVCGILIENMLRGEHIHAVVMGIGVNVNHSDGNLPFAGAMSSEAAKTFHLQEVFTRICENLEPYYLMLEQGLFAELDALYLQNLYGLNEKKHFSDSEGNFTGTIQAVLPGGLLQVEKESGVIKQYTFKEVSLVK”, the “soluble on expression in E. coli” value is reported as “not soluble”.

For “MGSDKIHHHHHHMLTTLAIGNYRSINHLVLPLSQLNLVTGANGSGKSNLYKALRLLAETAQGGVVEALAREGGLDSTWWAGPETSARMRRGEVPIQGQHPSEVRRLRLGFATEDLGFAITLGLPIPLPYPSAFMLDPEIKCEAIWGAGAYRPSSLLVERKNALVRAREGNRWAVLDQHADSGESFFNIVGRPRQAPEIGDLRAFINSWRFYDHFRIDRDAPCRQPQLGTRSPVLHHDGRNLASALQTIIEIGDVEDLEEALNDAFPGSRLEINAPPGGLFSVRLHQHGLLRPLEGAELSDGTLRYLLLMAALLTPRPPSLMVLNEPETSLHADLLPALARLIIRASRRSQVWVVSHSAPLINALAACDGCNVLELEKIQGQTQLRGVGLLDEPLWRWAD”, the “soluble on expression in E. coli” value is recorded as “not soluble”.

As for “MGSDKIHHHHHHMMPYLAKILLYPVKSLDGVEVEKVGVLASGALQHDREFAIFDERGKFVNGKRHAKIHLLRVQFALFNRTISLQIPGGNSQQVFHLDEERQALEATLSNYFEFAVTLRQNSLMGFPDDTHSPGPTVISTATLTEVASWFPGLSVDEIRRRMRANIEIDGVPAFWEDRLFSEQGDLVSFRVGDVDFFGANPCQRCIVPTRDSYSGEAYPSFQKIFATQRQATLPNWVASSPFNHFYRLSVNTQLPISSAGKILQIGDGVDIFP”, the “soluble on expression in E. coli” value is “not soluble”.

As for “MRKALKDSKRIVVKVGTSTLTYENGSVNLMRIEKLSRVISDICNMGKEVVLVSSGAIGVGVGKLRLEKKPETIREKQAVAAVGQCALMHIYNKFFGEYSHVVAQVLLTRDVLENERMKNNVCNTFDTLLEKGIIPIVNENDAISIDEIQNILNFGDNDNLSAIVSTLVNADTLIILSDIDGFYDSDPRTNEDSKMLKEVYEITPEIEECAGGAGSNRGTGGMVTKLSAAKVATSNGIDMILANGENPEILIDILNGEDIGTMFVAKKGELEHHHHHH”, the “soluble on expression in E. coli” value is reported as “not soluble”.

Regarding “MSLSPPILVGFSGPLTGVNSDLGVQGRNGAQLAIEHINAGGGINGRQLELLSMDDGPTAESARDADSALLRQGVVAIIGHMTSNQAIAGLPVVEQHGAVMIAPTVSTPLLTGKRDGFFRLMPDNDSWAYATADYALAQGLKTVSVIYETANQAFAGSFVDGFVTQFEAGGGRLLQRIPFTSAQRDTLEAAAIRAVSTNPDTIVLAASARDTAALAQFIDAHDSPRPVLLSSSWAYTREIFLAGGRAVEGIVFTISYLPDDTREGYLAFRKAYTERFGWEPNFAAALAYESAKVLAAALRRTGGRAQGLREALAAGTPVQGISETVTLDQYGDVQRPPYIVTIRNGEFVSIQEGHHHHHH”, the “soluble on expression in E. coli” value was “soluble”.

Take “MGYAVLHLEKAKGTDSRMSAHIERTVHPKNADRTRTHLNRELVQFPEGVRNRTQAIAQRIETAGIRRKVSANQVKAIRILLTGSNKDMKQMEAEGRIEDWCNDSLKWIRETYGEQNLVSAVLHMDEKTPHIHATVIPIMTGERRKAGQEEQNGKKKYRKKNPQDVRLCADDVMARHRLKHYQDTYAQAMNKYGLQRGVDGSLAKHISTMQYYKQLVEQQDSLQENIENLLGLEEEAMKKLKQVKGEINVQKMKGAAVNATTAIADGVSSLFGGSKVKRLEAENENLKRNIVNLQKQVQAEQREQTKMENRHSSEINRVDRSYRQKIAEYDNRLELIDTYFPIVKELIPIAEQCREVGFTEELTRRIVSLQPVEFKGRLYSKEYKEKFRTEHSTATVERTPQEKGKFRLCIDGIPILDWFRKKFQEIKEKLGLNTPVENKQRKGLKILEHHHHHH”: the “soluble on expression in E. coli” value is reported as “not soluble”.

For the origin of these results see the DeepSol protein solubility set.
